From paper PMC10434055, “Functional Characterization of Small Alarmone Synthetase and Small Alarmone Hydrolase Proteins from Treponema denticola” (Microbiology Spectrum, 2023)
Where two headings read alike, the source gives them in different places. Each block holds one molecule with its values, some of them ahead of it.

Experiments:
Tde-SAS = test system: T1, Tde-SAS; experiment: AMP by-product quantified by Mono Q anion-exchange chromatography; type: biochemical, Treponema denticola; conditions: 5 mM ATP, 10 mM MgCl2, pH 8.8, 37 °C, no added alarmone
T1 construct: gene TDE1711; full length, 410 aa; pET28a recombinant in E. coli BL21(DE3), IMAC purified; recombinant MW 51,318 Da; homotetramer (SEC ~220 kDa)

Tde-SAS1–246 = test system: T2, Tde-SAS1–246; experiment: as above; type: biochemical, Treponema denticola; conditions: 5 mM ATP, 10 mM MgCl2, pH 8.8, 37 °C, no added alarmone
T2 construct: gene TDE1711; N-terminal catalytic domain, residues 1-246, TPR domain removed; pET28a recombinant in E. coli BL21(DE3), IMAC purified; recombinant MW 32,557 Da; homotetramer (SEC ~160 kDa)

[1] = target: Tde-SAS_(1–246), catalytic domain of Treponema denticola small alarmone synthetase (Treponema denticola ATCC 35405); experiment: SEC; size-exclusion chromatography of the purified recombinant protein; oligomeric state from the apparent MW against the monomer's calculated MW; column and buffer not given
[2] = target: Treponema denticola small alarmone hydrolase Tde-SAH (TDE1690) (Treponema denticola ATCC 35405); experiment: as above
[3] = target: Treponema denticola small alarmone synthetase Tde-SAS (TDE1711) (Treponema denticola ATCC 35405); experiment: as above
[4] = substrate: Nc1nc2c(ncn2[C@@H]2O[C@H](COP(=O)(O)O)[C@@H](OP(=O)(O)OP(=O)(O)O)[C@H]2O)c(=O)[nH]1; experiment: pyrophosphatase-coupled continuous spectrophotometric phosphate-release assay (EnzChek, MESG/PNP); type: biochemical, Treponema denticola; conditions: 1 mM MnCl2, pH 8.4, 37 °C
[5] = substrate: Nc1nc2c(ncn2[C@@H]2O[C@H](COP(=O)(O)OP(=O)(O)OP(=O)(O)O)[C@@H](OP(=O)(O)OP(=O)(O)O)[C@H]2O)c(=O)[nH]1; experiment: as above; type: biochemical, Treponema denticola; conditions: 1 mM MnCl2, pH 8.4, 37 °C
[6] = substrate: Nc1nc2c(ncn2[C@@H]2O[C@H](COP(=O)(O)OP(=O)(O)O)[C@@H](OP(=O)(O)OP(=O)(O)O)[C@H]2O)c(=O)[nH]1; experiment: as above; type: biochemical, Treponema denticola; conditions: 1 mM MnCl2, pH 8.4, 37 °C

Molecule: Nc1nc2c(ncn2[C@@H]2O[C@H](COP(=O)(O)OP(=O)(O)O)[C@@H](O)[C@H]2O)c(=O)[nH]1 [GDP]
Km (Tde-SAS; read-out: Km(GDP)): 5.29 ± 2.61 mM
Km (Tde-SAS1–246; read-out: Km(GDP)): 1.03 ± 0.3 mM

Molecule: Nc1nc2c(ncn2[C@@H]2O[C@H](COP(=O)(O)O)[C@@H](O)[C@H]2O)c(=O)[nH]1 [GMP]
Km (Tde-SAS; read-out: Km(GMP)): 11.7 ± 1.69 mM
Km (Tde-SAS1–246; read-out: Km(GMP)): 3.44 ± 0.6 mM

Molecule: Nc1nc2c(ncn2[C@@H]2O[C@H](COP(=O)(O)OP(=O)(O)OP(=O)(O)O)[C@@H](O)[C@H]2O)c(=O)[nH]1 [GTP]
Km (Tde-SAS; read-out: Km(GTP)): 6.09 ± 1.01 mM
Km (Tde-SAS1–246; read-out: Km(GTP)): 2.91 ± 0.75 mM

stoichiometry N [1]: 4
Molecule: Tde-SAS_(1–246), catalytic domain of Treponema denticola small alarmone synthetase (domain or fragment)

stoichiometry N [2]: 2
Molecule: Treponema denticola small alarmone hydrolase Tde-SAH (TDE1690) (enzyme)

stoichiometry N [3]: 4
Molecule: Treponema denticola small alarmone synthetase Tde-SAS (TDE1711) (enzyme)

B1: Tde-SAH (Treponema denticola ATCC 35405) (protein)
chain: MLSFDSNKEFALTRDLGVLKGIYLAPYMQVATALIGKARHAGGNMFRHQVDTMAILIDYGYIDSVLLKASLIHDVIEDIEDFNVNEILSIDSESGQVYELVLEVTKKKGQEKTEYLKNIIKNGSEKAKILKCADRISNMISLGFVTDSEFIERYCNETELYIFPIALEVNFEMYKELMALVVSRRQYLVECGYLEERVKKMRKAR
notes: full length (205 aa in the introduction, 210 aa in the abstract); pET28a recombinant in E. coli BL21(DE3), IMAC purified; recombinant MW 27,091 Da; homodimer (SEC ~44 kDa)
Km [4]: 0.12 mM
kcat [4]: 0.54 ± 0.04 s⁻¹
Km [5]: 0.21 mM
Km [6]: 0.11 mM
kcat [6]: 0.79 ± 0.07 s⁻¹
